Data: patent US20230151091A1 (NEW YORK UNIVERSITY, published 2023)

T1: rat MuSK (rat, UniProt Q62838 22-494, limits assumed)
T1 construct: Coated on Biacore chip (200RU) or ELISA plate
T1 sequence (looked up): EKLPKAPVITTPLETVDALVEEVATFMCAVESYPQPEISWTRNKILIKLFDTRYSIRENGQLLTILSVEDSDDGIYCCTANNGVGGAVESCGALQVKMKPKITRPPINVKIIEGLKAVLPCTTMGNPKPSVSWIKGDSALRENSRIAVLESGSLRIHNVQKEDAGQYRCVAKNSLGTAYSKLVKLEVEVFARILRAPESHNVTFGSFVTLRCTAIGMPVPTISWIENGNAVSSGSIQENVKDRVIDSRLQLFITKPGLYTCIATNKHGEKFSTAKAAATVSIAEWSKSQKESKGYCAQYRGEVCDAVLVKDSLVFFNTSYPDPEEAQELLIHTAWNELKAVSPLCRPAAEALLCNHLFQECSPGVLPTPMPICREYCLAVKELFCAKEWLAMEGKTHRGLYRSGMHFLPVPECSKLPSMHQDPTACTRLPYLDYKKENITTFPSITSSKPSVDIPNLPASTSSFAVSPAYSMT

T2: mouse MuSK (mouse, UniProt Q61006 22-494, limits assumed)
T2 construct: Coated on ELISA plates or on the Biacore chip; also called full length mouse MuSK; mouse MuSK (in house produced in HEK293 cells)
T2 sequence (looked up): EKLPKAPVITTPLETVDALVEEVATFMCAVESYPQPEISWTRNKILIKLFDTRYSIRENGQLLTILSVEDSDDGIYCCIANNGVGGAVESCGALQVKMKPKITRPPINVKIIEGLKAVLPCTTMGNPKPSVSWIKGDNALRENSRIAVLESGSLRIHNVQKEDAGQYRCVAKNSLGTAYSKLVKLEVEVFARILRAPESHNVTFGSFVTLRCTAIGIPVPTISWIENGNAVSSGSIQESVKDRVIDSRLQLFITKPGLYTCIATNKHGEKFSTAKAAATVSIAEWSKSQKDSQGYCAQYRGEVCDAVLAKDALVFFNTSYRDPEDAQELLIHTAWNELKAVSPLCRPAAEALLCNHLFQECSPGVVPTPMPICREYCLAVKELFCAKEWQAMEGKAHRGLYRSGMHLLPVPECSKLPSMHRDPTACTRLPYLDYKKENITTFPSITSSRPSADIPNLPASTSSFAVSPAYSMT

T3: mouse MuSK, endogenous (C2C12 myotubes; neuromuscular synapses of mice) (mouse, UniProt Q61006 22-868)
T3 sequence (looked up): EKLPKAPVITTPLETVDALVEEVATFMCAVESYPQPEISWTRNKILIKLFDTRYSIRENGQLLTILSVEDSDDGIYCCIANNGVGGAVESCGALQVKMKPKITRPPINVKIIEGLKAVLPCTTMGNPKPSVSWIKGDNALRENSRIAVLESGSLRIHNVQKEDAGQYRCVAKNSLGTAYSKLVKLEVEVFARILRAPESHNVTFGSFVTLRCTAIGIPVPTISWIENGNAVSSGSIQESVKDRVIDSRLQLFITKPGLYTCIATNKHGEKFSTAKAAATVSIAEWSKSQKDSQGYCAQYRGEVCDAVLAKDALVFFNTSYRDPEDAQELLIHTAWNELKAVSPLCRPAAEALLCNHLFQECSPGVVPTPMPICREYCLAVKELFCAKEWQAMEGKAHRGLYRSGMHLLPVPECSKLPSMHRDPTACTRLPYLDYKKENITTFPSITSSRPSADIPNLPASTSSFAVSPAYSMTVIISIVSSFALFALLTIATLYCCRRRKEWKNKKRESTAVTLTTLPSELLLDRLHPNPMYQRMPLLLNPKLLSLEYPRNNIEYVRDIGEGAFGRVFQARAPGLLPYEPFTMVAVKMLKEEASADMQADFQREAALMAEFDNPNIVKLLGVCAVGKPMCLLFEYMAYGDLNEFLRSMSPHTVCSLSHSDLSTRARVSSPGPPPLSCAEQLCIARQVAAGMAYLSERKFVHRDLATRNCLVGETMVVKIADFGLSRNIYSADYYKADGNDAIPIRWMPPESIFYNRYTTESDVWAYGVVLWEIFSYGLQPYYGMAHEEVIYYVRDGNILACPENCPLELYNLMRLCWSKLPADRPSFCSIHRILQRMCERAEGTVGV


How the values were obtained:
rat MuSK [1] = target: T1, rat MuSK; experiment: Biacore, MuSK on chip, association pH 7.4, dissociation pH 5.5
Method: (§1) For affinity determination, a CMS chip was coated with cynomolgus monkey, rat and mouse MuSK (200RU) and 66.7 nM of antibody was applied and kinetic parameters calculated (Table 8). The following conclusions could be drawn: (1) 3B2g1m3 and 3B2g2m3 (m3 variants) show significant drop in affinity for MuSK for all species tested; (2) 3B2g1m2 and 3B2g2m2 (m2 variants) show some drop in affinity for MuSK; (3) 3B2g1m1, 3B2g2m1, 3B2g1m4, 3B2g2m4 (ml and m4 variants) show no drop in affinity for MuSK for all species tested; and (4) for all clones there is no difference between g1 and g2 variants (VL methionine versus serine in CDR3).
(§2) In order to study pH dependent binding of our antibodies to MuSK, the same Biacore was used as above, but now dissociation was done at pH 5.5 instead of pH 7.4. […] The following conclusions could be drawn for the different variants: (1) 3B2g1m3 and 3B2g2m3 (m3 variants) show significant drop in affinity for MuSK for all species tested; (2) 3B2g1m2 and 3B2g2m2 (m2 variants) show some drop in affinity for MuSK; (3) 3B2g1m1, 3B2g2m1, 3B2g1m4, 3B2g2m4 (m1 and m4 variants) show no drop in affinity for MuSK for all species tested; and (4) for all clones there is no difference between g1 and g2 variants (VL methionine versus serine in CDR3).

cynomolgus monkey MuSK [2] = target: T4, cynomolgus monkey MuSK (cynomolgus monkey, UniProt A0A2K5USF6 24-487); experiment: as above
T4 sequence (A0A2K5USF6 entry or part of it): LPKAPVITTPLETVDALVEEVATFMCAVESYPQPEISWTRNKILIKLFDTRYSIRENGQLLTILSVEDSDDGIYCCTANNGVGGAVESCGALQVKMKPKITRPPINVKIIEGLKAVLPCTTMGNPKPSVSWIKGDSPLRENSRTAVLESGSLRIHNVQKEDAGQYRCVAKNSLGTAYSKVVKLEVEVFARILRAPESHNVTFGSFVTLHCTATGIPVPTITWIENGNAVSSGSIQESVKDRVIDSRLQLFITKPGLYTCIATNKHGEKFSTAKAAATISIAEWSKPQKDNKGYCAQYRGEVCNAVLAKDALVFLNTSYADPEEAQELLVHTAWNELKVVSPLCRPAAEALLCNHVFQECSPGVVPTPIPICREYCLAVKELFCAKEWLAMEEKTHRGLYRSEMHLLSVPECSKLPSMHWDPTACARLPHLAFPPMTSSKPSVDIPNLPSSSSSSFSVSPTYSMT
Method: as §1, §2

mouse MuSK [3] = target: T2, mouse MuSK; experiment: as above
Method: as §1, §2

[4] = target: T3, mouse MuSK, endogenous (C2C12 myotubes; …); experiment: cell-based or functional assay
rat MuSK [5] = target: T1, rat MuSK; experiment: Biacore, MuSK on chip (200RU), 66.7 nM mAb, dissociation pH 7.4
Method: as §1

cynomolgus monkey MuSK [6] = target: T4, cynomolgus monkey MuSK; experiment: as above
Method: as §1

mouse MuSK [7] = target: T2, mouse MuSK; experiment: as above
Method: as §1

| R0 (rat MuSK [1]) | koff (rat MuSK [1]) | kon (rat MuSK [1]) | R0 (cynomolgus monkey MuSK [2]) | koff (cynomolgus monkey MuSK [2]) | kon (cynomolgus monkey MuSK [2]) | R0 (mouse MuSK [3]) | koff (mouse MuSK [3]) | kon (mouse MuSK [3]) | MuSK phosphorylation in C2C12 myotubes [4] | R0 (rat MuSK [5]) | koff (rat MuSK [5]) | kon (rat MuSK [5]) | R0 (cynomolgus monkey MuSK [6]) | koff (cynomolgus monkey MuSK [6]) | kon (cynomolgus monkey MuSK [6]) | R0 (mouse MuSK [7]) | koff (mouse MuSK [7]) | kon (mouse MuSK [7]) | Binder |
| --- | --- | --- | --- | --- | --- | --- | --- | --- | --- | --- | --- | --- | --- | --- | --- | --- | --- | --- | --- |
| 171 RU | 0.00558 s⁻¹ | 950000 M⁻¹ s⁻¹ | 146 RU | 0.00261 s⁻¹ | 680000 M⁻¹ s⁻¹ | 191 RU | 0.00304 s⁻¹ | 980000 M⁻¹ s⁻¹ | ~58 % of 1 nM agrin | 155 RU | 0.00192 s⁻¹ | 1.12e+06 M⁻¹ s⁻¹ | 140 RU | 0.00086 s⁻¹ | 730000 M⁻¹ s⁻¹ | 192 RU | 0.00065 s⁻¹ | 1.08e+06 M⁻¹ s⁻¹ | 3B2g1m4 (antibody, human IgG1, V domains shown, human IgG1-LALA backbone; produced in HEK293 cells) VH: EVQLLESGGGLVQPGGSLRLSCAASGFTFSDYGMSWVRQAPGKGLEWVSAIPWQGGSTYYKESVKGRFTISRDNSKNTLYLQMNSLRAEDTAVYYCAKRSGRIAFGALDAWGQGTLVTVSS VL: QTVVTQEPSFSVSPGGTVTLTCGLSSGSVTSSNYPDWYQQTPGQAPRTLIYSTDSRHSGVPDRFSGSILGNKAALTITGAQADDESDYYCGLYMYSGSKNYVFGGGTKLTVL |
| 172 RU | 0.00538 s⁻¹ | 1.02e+06 M⁻¹ s⁻¹ | 148 RU | 0.00256 s⁻¹ | 750000 M⁻¹ s⁻¹ | 191 RU | 0.003 s⁻¹ | 1.04e+06 M⁻¹ s⁻¹ | ~58 % of 1 nM agrin | 158 RU | 0.00196 s⁻¹ | 1.19e+06 M⁻¹ s⁻¹ | 142 RU | 0.00088 s⁻¹ | 790000 M⁻¹ s⁻¹ | 193 RU | 0.00064 s⁻¹ | 1.15e+06 M⁻¹ s⁻¹ | 3B2g2m4 (antibody, human IgG1, V domains shown, human IgG1-LALA backbone; produced in HEK293 cells) VH: EVQLLESGGGLVQPGGSLRLSCAASGFTFSDYGMSWVRQAPGKGLEWVSAIPWQGGSTYYKESVKGRFTISRDNSKNTLYLQMNSLRAEDTAVYYCAKRSGRIAFGALDAWGQGTLVTVSS VL: QTVVTQEPSFSVSPGGTVTLTCGLSSGSVTSSNYPDWYQQTPGQAPRTLIYSTDSRHSGVPDRFSGSILGNKAALTITGAQADDESDYYCGLYSYSGSKNYVFGGGTKLTVL |
| 145 RU | 0.0973 s⁻¹ | 40000 M⁻¹ s⁻¹ | 146 RU | 0.00326 s⁻¹ | 860000 M⁻¹ s⁻¹ | 153 RU | 0.0882 s⁻¹ | 210000 M⁻¹ s⁻¹ | ~80 % of 1 nM agrin | 130 RU | 0.00281 s⁻¹ | 1.56e+06 M⁻¹ s⁻¹ | 136 RU | 0.00179 s⁻¹ | 890000 M⁻¹ s⁻¹ | 158 RU | 0.00231 s⁻¹ | 1.71e+06 M⁻¹ s⁻¹ | 3B2g2m2 (antibody, human IgG1, V domains shown, human IgG1-LALA backbone; produced in HEK293 cells) VH: EVQLLESGGGLVQPGGSLRLSCAASGFTFSDYGMSWVRQAPGKGLEWVSAIPGSGGSTYYKESVKGRFTISRDNSKNTLYLQMNSLRAEDTAVYYCAKRSGRIAFGALDAWGQGTLVTVSS VL: QTVVTQEPSFSVSPGGTVTLTCGLSSGSVTSSNYPDWYQQTPGQAPRTLIYSTDSRHSGVPDRFSGSILGNKAALTITGAQADDESDYYCGLYSYSGSKNYVFGGGTKLTVL |
